For the test, the target named is microtubules (polymerised α/β-tubulin) (UniProt Q6B856).

Here are results for 1 substance from article PMC10876603.

UniProt Q6B856, sequence (Q6B856 whole entry, looked up): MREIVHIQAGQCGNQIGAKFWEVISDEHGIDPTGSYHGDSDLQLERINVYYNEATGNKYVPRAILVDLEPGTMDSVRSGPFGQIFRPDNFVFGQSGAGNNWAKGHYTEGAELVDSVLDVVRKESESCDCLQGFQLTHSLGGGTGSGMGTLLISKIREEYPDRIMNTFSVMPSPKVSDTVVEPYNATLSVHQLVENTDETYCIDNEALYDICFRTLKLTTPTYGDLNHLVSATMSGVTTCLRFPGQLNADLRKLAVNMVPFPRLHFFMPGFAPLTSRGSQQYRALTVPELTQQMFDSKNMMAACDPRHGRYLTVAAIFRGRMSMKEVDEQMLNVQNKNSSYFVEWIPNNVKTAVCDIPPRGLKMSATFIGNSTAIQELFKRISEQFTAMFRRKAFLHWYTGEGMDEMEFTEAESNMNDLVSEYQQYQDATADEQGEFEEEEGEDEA

On to “human CEN subcomplex with Borealin R17E, R19E, K20E (CEN-Borealin^MTBM) (from UniProt Q9NQS7 1-58; O15392 1-142; Q53HL2 1-280)”, for which the width of bundles of GMpCpp-stabilized rhodamine-labeled MTs (100 nM) after 2 min with 4 μM CEN, TIRF microscopy (single GMpCpp MTs measure 0.34 μm) was found to be 0.36 μm.
